From patent US20210285013A1 come the findings set out here.

The assay addresses human ApoB100 (human) (UniProt P04114). Nature of the assay: cell-based or functional assay.
Sequence of UniProt P04114 (P04114 28-4563 limits assumed): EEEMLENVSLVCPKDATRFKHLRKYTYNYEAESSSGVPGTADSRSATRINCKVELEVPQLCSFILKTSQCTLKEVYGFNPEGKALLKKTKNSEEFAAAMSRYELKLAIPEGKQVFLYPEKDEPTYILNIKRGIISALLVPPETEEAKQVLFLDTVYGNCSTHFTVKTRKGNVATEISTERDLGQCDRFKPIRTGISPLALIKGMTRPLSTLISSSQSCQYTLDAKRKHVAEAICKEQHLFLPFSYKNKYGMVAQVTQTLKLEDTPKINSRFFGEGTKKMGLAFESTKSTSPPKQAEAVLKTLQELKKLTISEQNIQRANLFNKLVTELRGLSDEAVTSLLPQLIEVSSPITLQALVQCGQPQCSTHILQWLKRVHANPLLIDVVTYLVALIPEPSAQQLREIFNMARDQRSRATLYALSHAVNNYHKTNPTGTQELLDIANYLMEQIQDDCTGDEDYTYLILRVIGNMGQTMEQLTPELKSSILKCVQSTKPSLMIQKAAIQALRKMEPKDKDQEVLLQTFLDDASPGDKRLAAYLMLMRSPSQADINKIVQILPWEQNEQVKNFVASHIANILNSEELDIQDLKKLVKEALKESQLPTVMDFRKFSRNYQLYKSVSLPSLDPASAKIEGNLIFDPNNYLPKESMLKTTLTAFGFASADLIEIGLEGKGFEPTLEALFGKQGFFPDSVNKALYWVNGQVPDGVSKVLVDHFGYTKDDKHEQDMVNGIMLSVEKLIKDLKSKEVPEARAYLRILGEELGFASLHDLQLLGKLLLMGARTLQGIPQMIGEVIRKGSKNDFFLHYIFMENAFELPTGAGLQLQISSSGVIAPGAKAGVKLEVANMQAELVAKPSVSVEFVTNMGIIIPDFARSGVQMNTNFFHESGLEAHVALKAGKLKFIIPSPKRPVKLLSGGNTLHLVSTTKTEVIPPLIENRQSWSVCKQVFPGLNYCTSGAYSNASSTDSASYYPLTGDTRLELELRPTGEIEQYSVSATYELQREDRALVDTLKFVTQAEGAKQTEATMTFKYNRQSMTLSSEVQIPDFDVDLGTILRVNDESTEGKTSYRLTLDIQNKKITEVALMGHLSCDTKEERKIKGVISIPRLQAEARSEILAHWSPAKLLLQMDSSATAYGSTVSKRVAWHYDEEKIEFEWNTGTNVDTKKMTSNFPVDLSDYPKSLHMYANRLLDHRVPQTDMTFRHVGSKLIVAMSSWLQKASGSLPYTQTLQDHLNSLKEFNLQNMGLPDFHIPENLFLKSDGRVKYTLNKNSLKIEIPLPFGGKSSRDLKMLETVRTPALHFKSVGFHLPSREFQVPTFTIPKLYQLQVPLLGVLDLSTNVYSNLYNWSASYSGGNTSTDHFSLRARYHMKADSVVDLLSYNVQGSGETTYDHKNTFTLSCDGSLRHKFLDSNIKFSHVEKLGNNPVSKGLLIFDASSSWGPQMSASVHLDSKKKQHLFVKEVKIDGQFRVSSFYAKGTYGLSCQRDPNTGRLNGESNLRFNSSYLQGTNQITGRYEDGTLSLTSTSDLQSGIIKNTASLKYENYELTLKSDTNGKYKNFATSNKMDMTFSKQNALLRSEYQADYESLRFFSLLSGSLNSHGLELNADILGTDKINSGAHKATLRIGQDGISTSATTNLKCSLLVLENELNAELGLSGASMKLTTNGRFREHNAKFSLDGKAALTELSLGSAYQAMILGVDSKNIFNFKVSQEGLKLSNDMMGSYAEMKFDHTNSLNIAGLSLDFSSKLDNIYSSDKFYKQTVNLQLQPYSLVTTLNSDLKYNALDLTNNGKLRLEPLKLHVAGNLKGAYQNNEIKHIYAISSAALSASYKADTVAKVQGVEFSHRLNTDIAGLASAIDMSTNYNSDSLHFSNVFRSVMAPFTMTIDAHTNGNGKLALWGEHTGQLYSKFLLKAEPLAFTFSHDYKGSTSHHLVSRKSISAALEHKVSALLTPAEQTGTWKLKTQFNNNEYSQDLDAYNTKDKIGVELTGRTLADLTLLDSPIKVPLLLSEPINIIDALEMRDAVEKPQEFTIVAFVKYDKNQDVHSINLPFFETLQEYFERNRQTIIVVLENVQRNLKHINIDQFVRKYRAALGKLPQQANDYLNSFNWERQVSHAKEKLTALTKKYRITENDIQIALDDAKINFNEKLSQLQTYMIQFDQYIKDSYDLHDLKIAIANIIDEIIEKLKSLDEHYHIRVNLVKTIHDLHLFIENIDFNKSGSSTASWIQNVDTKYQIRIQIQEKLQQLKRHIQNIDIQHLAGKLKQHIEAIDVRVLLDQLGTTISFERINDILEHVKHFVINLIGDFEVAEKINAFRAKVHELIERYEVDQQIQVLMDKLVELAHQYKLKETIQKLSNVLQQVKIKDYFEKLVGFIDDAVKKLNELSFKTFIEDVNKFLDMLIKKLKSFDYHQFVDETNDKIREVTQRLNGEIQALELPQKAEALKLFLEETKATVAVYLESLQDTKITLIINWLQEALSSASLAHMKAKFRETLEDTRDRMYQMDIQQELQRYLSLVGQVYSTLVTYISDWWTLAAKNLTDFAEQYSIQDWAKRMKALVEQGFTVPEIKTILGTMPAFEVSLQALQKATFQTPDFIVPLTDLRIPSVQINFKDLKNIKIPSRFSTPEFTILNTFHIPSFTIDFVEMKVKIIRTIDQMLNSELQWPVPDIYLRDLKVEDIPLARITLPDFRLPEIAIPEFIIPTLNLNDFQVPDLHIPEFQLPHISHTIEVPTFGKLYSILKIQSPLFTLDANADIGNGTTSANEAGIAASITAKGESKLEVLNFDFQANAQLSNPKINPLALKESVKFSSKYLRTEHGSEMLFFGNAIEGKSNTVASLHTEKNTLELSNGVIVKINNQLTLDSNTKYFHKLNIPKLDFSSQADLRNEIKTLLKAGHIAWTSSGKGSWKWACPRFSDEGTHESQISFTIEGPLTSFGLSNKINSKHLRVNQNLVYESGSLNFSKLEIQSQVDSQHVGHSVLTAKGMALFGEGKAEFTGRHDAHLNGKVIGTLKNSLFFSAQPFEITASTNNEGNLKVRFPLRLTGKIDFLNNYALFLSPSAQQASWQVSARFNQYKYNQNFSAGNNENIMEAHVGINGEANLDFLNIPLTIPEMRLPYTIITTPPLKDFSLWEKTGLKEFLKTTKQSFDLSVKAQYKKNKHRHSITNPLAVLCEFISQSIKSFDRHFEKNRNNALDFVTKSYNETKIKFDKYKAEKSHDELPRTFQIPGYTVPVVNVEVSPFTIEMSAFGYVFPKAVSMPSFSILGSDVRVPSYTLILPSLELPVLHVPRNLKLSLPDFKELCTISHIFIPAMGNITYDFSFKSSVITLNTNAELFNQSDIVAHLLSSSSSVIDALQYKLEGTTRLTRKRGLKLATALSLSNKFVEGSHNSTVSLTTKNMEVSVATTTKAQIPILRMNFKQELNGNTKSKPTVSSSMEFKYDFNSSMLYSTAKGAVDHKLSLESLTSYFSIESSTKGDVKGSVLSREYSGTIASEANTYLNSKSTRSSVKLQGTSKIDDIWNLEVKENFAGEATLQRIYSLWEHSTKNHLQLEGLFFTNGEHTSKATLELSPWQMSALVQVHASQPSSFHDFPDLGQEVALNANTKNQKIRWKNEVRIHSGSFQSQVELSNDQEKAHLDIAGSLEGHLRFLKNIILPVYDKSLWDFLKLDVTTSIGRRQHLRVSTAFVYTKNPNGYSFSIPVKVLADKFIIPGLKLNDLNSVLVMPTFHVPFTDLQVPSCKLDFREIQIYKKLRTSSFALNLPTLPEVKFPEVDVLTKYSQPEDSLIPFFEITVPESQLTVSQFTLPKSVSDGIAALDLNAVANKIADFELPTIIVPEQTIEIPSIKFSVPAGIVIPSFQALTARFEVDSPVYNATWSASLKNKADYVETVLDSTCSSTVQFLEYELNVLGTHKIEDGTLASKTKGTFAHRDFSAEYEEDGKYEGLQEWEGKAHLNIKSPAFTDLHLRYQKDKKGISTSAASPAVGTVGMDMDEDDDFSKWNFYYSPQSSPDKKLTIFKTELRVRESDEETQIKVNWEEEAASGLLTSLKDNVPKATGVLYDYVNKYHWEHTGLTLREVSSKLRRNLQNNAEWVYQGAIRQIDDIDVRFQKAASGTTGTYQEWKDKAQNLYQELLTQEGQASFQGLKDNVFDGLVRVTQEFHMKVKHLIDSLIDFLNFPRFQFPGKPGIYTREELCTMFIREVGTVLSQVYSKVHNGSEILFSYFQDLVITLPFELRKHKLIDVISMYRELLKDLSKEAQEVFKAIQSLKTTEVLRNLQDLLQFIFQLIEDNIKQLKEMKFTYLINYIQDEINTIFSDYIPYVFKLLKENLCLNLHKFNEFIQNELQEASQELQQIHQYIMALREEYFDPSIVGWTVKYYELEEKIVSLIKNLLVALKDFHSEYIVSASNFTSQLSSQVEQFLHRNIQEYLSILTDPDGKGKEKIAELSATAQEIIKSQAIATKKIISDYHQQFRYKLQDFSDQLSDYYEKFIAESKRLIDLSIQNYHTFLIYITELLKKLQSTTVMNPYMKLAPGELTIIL

Consider “human low density lipoprotein receptor (hLDLR) (from UniProt P01130 22-860)”, for which the reduction of serum cholesterol in LAHB mice after AAV8.TBG.hLDLR was found to be 30%.
